T1: AtfA::6His (Aspergillus fumigatus AkuB, UniProt Q4WY05 1-555)
T1 sequence: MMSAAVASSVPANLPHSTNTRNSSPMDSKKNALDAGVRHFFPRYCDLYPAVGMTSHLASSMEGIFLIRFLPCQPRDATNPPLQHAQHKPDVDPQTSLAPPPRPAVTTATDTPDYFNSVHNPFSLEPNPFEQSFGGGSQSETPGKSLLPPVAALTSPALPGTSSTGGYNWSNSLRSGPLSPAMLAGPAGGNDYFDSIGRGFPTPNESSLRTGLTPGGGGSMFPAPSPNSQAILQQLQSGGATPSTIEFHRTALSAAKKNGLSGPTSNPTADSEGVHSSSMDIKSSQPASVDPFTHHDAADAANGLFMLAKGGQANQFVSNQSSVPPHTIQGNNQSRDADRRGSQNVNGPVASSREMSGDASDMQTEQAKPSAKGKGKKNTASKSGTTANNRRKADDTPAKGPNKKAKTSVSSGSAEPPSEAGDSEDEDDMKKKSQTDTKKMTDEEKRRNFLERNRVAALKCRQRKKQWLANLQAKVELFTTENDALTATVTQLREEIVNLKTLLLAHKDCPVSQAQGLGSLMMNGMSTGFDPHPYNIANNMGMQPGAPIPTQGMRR


Experiments:
GST::PacC (30-195*) = GST::PacC (30-195*) (Aspergillus nidulans? (plasmid …, UniProt Q00202 30-195)); experiment: EMSA
Sequence of GST::PacC (30-195*) (Aspergillus nidulans? (Q00202 30-195): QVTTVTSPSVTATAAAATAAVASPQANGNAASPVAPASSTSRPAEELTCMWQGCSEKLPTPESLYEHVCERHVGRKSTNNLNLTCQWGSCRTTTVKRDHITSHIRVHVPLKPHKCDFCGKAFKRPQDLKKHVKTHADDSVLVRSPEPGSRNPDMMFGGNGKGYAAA
AtfA::6His = target: T1, AtfA::6His; experiment: EMSA

Row | Binder | binding result (GST::PacC (30-195*)) | binding result (AtfA::6His)
1 | PacC probe (DprB promoter, -264) (dsDNA) DNA 1: GGGTCGATCCAGGTACCGCCAGGGGTTGATATGACAG DNA 2: GGGCTGTCATATCAACCCCTGGCGGTACCTGGATCGA | binds | 
2 | A-142 probe (DprA promoter) (dsDNA) DNA 1: GGGCTCCCCGGCTTCTTGACGTAACCCCCAGACATGA DNA 2: GGGTCATGTCTGGGGGTTACGTCAAGAAGCCGGGGAG |  | binds
3 | A-23 probe (DprA promoter) (dsDNA) DNA 1: GGGCAGTTCAAATACAGAACGTCACAAATCTTACACA DNA 2: GGGTGTGTAAGATTTGTGACGTTCTGTATTTGAACTG |  | binds
